The text below walks through data of publication PMC7703596.

The test system of series [1] is COC(=O)c1ccccc1-c1c2ccc(=N)cc-2oc2cc(N)ccc12. The experiment in a line: efflux kinetics in HeLa cells, flow cytometry. Conditions: ATP. Format: cell-based, Homo sapiens. (In general: A flow cytometer gives signals particle by particle.)
The test system is the same in series [2]. The series is described as follows: uptake kinetics in HeLa cells, flow cytometry. Format: cell-based, Homo sapiens. Conditions: ATP.

In general, Km refers to the substrate concentration at which the rate is half of its maximum. Take P-glycoprotein (P-gp) (Homo sapiens): the Km in series [1] is 2.98 ± 0.51 µM.

Turning to “P-glycoprotein (P-gp) 14A mutant (Homo sapiens; F336A/F343A/L332A/L975A/M986A/S979A/V331A/V334A/V338A/V345A/V974A/V977A/V981A/V982A)”, in series [2], the Km is given as 1.69 ± 0.12 µM.
